Results reported in patent publication US9526766B2, “Potentiation of antibiotic treatment with a protein-lipid complex” (priority 2012, dated 2016).
Like-named read-outs stand apart in the source and are kept apart here.

B1: ALAFAC: non-covalent complex of alpha-lactalbumin and fatty acid (oleic acid); labeled HAMLET or HL in drawings and tables (protein, UniProt P00709 20-142, looked up)
Alpha-lactalbumin: KQFTKCELSQLLKDIDGYGGIALPELICTMFHTSGYDTQAIVENNESTEYGLFQISNKLWCKSSQVPQSRNICDISCDKFLDDDITDDIMCAKKILDIKGIDYWLAHKALCTEKLEQWLCEKL
modifications: complexed with oleic acid

What was measured:
[1] = system: S. aureus NRS70 (MRSA) nasopharyngeal colonization; assay: Murine nasopharyngeal colonization model, intranasal treatment; assay type: in vivo, Staphylococcus aureus; conditions: for Colonization burden: mice colonized with NRS70 for 48 hours, methicillin single dose 100 μg (5,000 μg/ml) alone, ALAFAC alone at the same dose
Method: Methodology: Six-week-old female BALB/cByJ mice from Jackson Laboratories (Bar Harbor, Me., U.S.A.) were maintained in filter-top cages on standard laboratory chow and water ad libitum until use. Mice were colonized as described previously. In short, 20 μl of a bacterial suspension containing 5×10^6 CFUs of EF3030 pneumococci, 1×10^8 CFUs of SP670 pneumococci, or 5×10^7 NRS70 methicillin-resistant S. aureus in PBS were pipetted into the nares of non-anesthetized mice. After 48 hours, mice were treated with 20 μl gentamicin (0-5,000 μg/mL), 20 μl penicillin (0-5,000 μg/mL), or 20 μl of methicillin (0-5,000 μg/ml) in the presence or absence of 50 or 100 μg ALAFAC in the nares for 6 hours as a single dose. Colonization burden was then assessed after euthanizing the animals by enumerating viable bacteria from harvested nasopharyngeal tissue after the nasal wash. Nasopharyngeal tissue was dissected out as described by removing the upper skull bone, and harvesting the tissue present in the nasal conchae with forceps. Bacterial load was measured by determining viable plate counts from the homogenized tissue.
Mice were colonized as described. In short, 10 μl of a bacterial suspension containing 5×10^7 CFUs of NRS 70 staphylococci in PBS were pipetted into the nares of non-anesthetized mice. After 24 hours, mice were treated with 20 μl methicillin (0-100 μg or 0-5,000 μg/mL) in the presence or absence of 20 μl (100 μg) ALAFAC in the nares for 12 hours. Colonization burden was then assessed after euthanizing the animals by enumerating viable bacteria both in a nasopharyngeal lavage obtained by injecting 100 μL PBS in the trachea of mice and collecting it as it flowed out the nares, and from harvested nasopharyngeal tissue after the nasal wash. Nasopharyngeal tissue was dissected out as described by removing the upper skull bone, and harvesting the tissue present in the nasal conchae with forceps. Bacterial load was measured by determining viable plate counts from the nasal lavage or from homogenized tissue as described above.

[2] = system: Staphylococci; assay: Membrane integrity assays (propidium iodide, ATP, A260 leakage); assay type: cell-based, Staphylococcus aureus; conditions: S. aureus; data not shown
Method: Membrane Integrity Assays. To evaluate the effect of […] on membrane integrity, Staphylococci were exposed to […] and antibacterial agents at indicated concentrations for 50 minutes at 37° C. in PBS. The detergent Triton X-100 (0.1%) was used as a control, known to cause extensive membrane rupture. After treatment the leakage of soluble components (DNA RNA and protein) were measured from supernatant obtained after centrifugation of the bacterial suspension at 13,000×g for 5 min, by measuring the absorbance at 260 nm in a BioTek Synergy 2 plate reader with the Take3 microdrop addition (Biotek). Cellular release of the small molecule ATP (MW 507) that was measured from the same supernatants using the ATP determining kit (Invitrogen), which measures the luminescence of oxyluciferin produced from the oxidation of luciferin by luficerase, a process that requires ATP degradation. […] Where applicable, independent readings were also taken in the presence of antibacterial agents alone to enable corrections for potential background leakage.

[3] = in vivo; cited from earlier work
[4] = system: NRS 384 Staphylococci; assay: Radioisotope 45Ca2+ transport assay; assay type: cell-based, Staphylococcus aureus; conditions: ALAFAC addition, Ruthenium Red 30 μM
Method: Radioisotope ^45Ca^2+ transport assays. Staphylococcus aureus was grown to log phase, washed three times and resuspended in 1×PBS containing 0.5 mM CaCl2 (CaPBS). No glucose was added in order to minimize the interference created by extrusion of Ca^2+ via ATPase pumps. ^45CaCl2 (PerkinElmer; Waltham, Mass., USA) was added to the cells at a final concentration of 2.5 μCi/mL, followed by inhibitor compound, with each addition given two minutes equilibration time. The untreated baseline sample was measured at this point. The sample was then divided, ALAFAC was added to one of the tubes, and ^45Ca^2+ uptake was measured at various intervals. For each sample, 100 μL was dispensed onto Millipore 0.3 μm PHWP filters (EMD Millipore; Billerica, Mass., USA) presoaked in CaPBS, and immediately washed with 9 mL of CaPBS via syringe filtration through Millipore Swinnex® filter holders. Filters were placed in scintillation vials with 5 mL of scintillation fluid, and CPMs were detected on a Wallac 1409 liquid scintillation counter (Wallac Oy, Turku, Finland). The results were expressed as ΔCPM that was calculated for each sample at the indicated time points as the difference between ALAFAC-treated and untreated samples.

[5] = system: NRS 384 Staphylococci; assay: Intracellular pH measurement (BCECF-AM); assay type: cell-based, Staphylococcus aureus; conditions: ALAFAC 100 μg/mL (6 μM), RuR 30 μM, Amiloride 1 mM
Description: Intracellular pH measurement. A reported protocol for intracellular pH (pHi) measurement was modified and optimized for S. aureus by testing the effect of various dye concentrations and staining times on the measured fluorescence of S. aureus isolate NRS 384 grown to mid-log phase. Cell samples were subjected to increasing concentrations of the membrane-permeant acetoxymehtyl (AM) ester derivative of the dual-excitation ratiometric pH indicator dye BCECF (2′,7′-bis-(2-carboxyethyl)-5-(and-6)-carboxyfluorescein), for 30 minutes at 30° C. Fluorescence was measured as a ratio of fluorescence at 530 nm with dual wavelength excitation at 490 and 440 nm and calibration curves were established for each independent experiment. After testing a number of loading concentrations we observed that the fluorescence ratios remains generally constant when concentrations above 20 μM was used. Therefore 25 μM BCECF-AM was used for all experiments. The optimized staining time, 30 minutes, was determined using the same criteria and was used for all experiments. After loading, the cells were washed twice in PBS by centrifugation and the resulting pellet was resuspended in PBS to the original volume and ALAFAC and ALAFAC/antibiotic combinations were added. CCCP was added as a positive control. CCCP is a lipophilic weak acid that is soluble in the lipid domain of the membrane in both the protonated and deprotonated form. This allows it to act as a protonophore causing an influx of H^+ into the cytoplasm, dissipating both the electrical potential and the H^+ gradient across the inner membrane. For each experiment calibration was performed where cells were resuspended in high [K^+] buffers at different pH values ranging from 6.5 to 8.0.

[6] = system: Moraxella catarrhalis; conditions: 2 mg/ml; cited from earlier work
[7] = system: Escherichia coli; conditions: concentrations up to 5 mg/ml; cited from earlier work
[8] = system: Staphylococci; conditions: concentrations up to 5 mg/ml; cited from earlier work
[9] = system: Bacillus subtilis; conditions: concentrations up to 5 mg/ml; cited from earlier work

| Molecule | Minimum antibiotic concentration for bactericidal (>3 log10) activity on murine nasopharyngeal colonization ([1]; NRS70, mice, within 12 hours, antibiotic alone) [μg/dose] | MRSA colonization, nasopharyngeal tissue ([1]; mice colonized with NRS 70 for 24 h, one dose, 100 μg methicillin alone or with 100 μg ALAFAC, 12 hours) | Colonization burden [1] | Membrane damage (propidium iodide staining; leakage of ATP, DNA, RNA) [2] | Toxic side effects [3] | Intracellular Ca2+ (45Ca2+ uptake) [4] | Transmembrane proton gradient (intracellular pH) [5] | Reduction of bacteria [6] | Bactericidal activity [7] | Bactericidal activity [8] | Bactericidal activity [9] | Storage time (physiological buffer (0.9% saline or PBS) at 4° C.) | Storage time (room temperature) |
| --- | --- | --- | --- | --- | --- | --- | --- | --- | --- | --- | --- | --- | --- |
| COc1cccc(OC)c1C(=O)N[C@@H]1C(=O)N2[C@@H]1SC(C)(C)[C@@H]2C(=O)O [Methicillin, methicillin] | >100 | failed to significantly reduce | no effect |  |  |  |  |  |  |  |  |  |  |
| B1 |  |  | no effect | no membrane damage | without showing any toxic side effects | rose immediately | effectively dissipated the proton gradient | less than 90% | no detectable activity | no detectable activity | no detectable activity | at least 3 months | at least three |
